In patent publication US6025146A, “Identification of M-CSF agonists and antagonists” (Chiron Corporation, priority 1995, dated 2000):
Numbering of substitutions follows the chain as printed. Numbers in names are those of the source. Values belong to the molecule of their own block, whether it stands above or below them.

Columns and labels:
NFS-60 cells [1] = assay: Antibody neutralization of M-CSF dimers by 5H410 Mab in the NFS-60 bioassay; assay type: cell-based; details: serial dilution neutralization experiments
Protocol: Fractionated products were analyzed on reducing SDS-PAGE and stained with Coomassie, according to the method of Laemmli, Nature […] 227:680-685 (1970). Biological activity was determined using the M-CSF dependent NFS-60 bioassay (See Example 10 below). Antibody neutralization experiments were carried out by pre-incubating approximately 5,000 units of M-CSF dimer with varying dilutions of the neutralizing M-CSF 5H410 Mab (made to refolded E. coli CΔ 150 M-CSFα dimer) prior to bioassay. (Halenbeck et al, Bio/Technology 7:710 (1989)
The biological activity of all three dimer species was neutralized to the same extent in serial dilution neutralization experiments using the 5H410 M-CSF Mab in the NFS-60 bioassay.

NFS-60 cells [2] = assay: M-CSF dependent NFS-60 bioassay (MTT read-out); assay type: cell-based
Protocol: Fractionated products were analyzed on reducing SDS-PAGE and stained with Coomassie, according to the method of Laemmli, Nature […] 227:680-685 (1970). Biological activity was determined using the M-CSF dependent NFS-60 bioassay (See Example 10 below). […] (Halenbeck et al, Bio/Technology 7:710 (1989)
The purified mutein dimers were subjected to bioassay using NFS-60 cells which is an M-CSF dependent cell line which forms colonies in the presence of active M-CSF. Standards and purified mutein samples were serially diluted 1:2 in RPMI media (10% fetal bovine serum) in a 50 microliter volume in 96-well microtiter plates. […] Plates were incubated at 37° C., 5% CO2 for 44 h. 5 mg/ml MTT dye was added to each sample and incubation continued for 4 h. 20% SDS was added to each sample. The plates were wrapped in foil and left overnight. The absorbance of each sample was read at 570 nm and compared to a standard of known M-CSF concentration.

[3] = system: cell surface M-CSF receptor (NFS60 cell M-CSF receptors); assay: NFS-60 receptor competition assay: displacement of 125I-M-CSF by radioligand displacement; assay type: binding
Protocol: FIG. 7 illustrates the competitive binding of M-CSF and M-CSF muteins to NFS60 cell M-CSF receptors.
The plates were incubated at 4° C. for 20 hours and the cells were collected on glass-fiber filters. Maximum binding was measured in the absence of unlabeled M-CSF and non-specific binding was measured in the presence of 1000-fold greater concentration of unlabeled M-CSF (compared to labeled M-CSF). […] Results are expressed as percent displacement of radioactive M-CSF versus mutein concentration (FIG. 7).

B1: Chinese hamster ovary cell (CHO)-expressed M-CSF: "naturally refolded" M-CSF expressed in Chinese hamster ovary cells (protein, UniProt P09603 33-554, looked up)
Macrophage colony-stimulating …: EEVSEYCSHMIGSGHLQSLQRLIDSQMETSCQITFEFVDQEQLKDPVCYLKKAFLLVQDIMEDTMRFRDNTPNAIAIVQLQELSLRLKSCFTKDYEEHDKACVRTFYETPLQLLEKVKNVFNETKNLLDKDWNIFSKNCNNSFAECSSQDVVTKPDCNCLYPKAIPSSDPASVSPHQPLAPSMAPVAGLTWEDSEGTEGSSLLPGEQPLHTVDPGSAKQRPPRSTCQSFEPPETPVVKDSTIGGSPQPRPSVGAFNPGMEDILDSAMGTNWVPEEASGEASEIPVPQGTELSPSRPGGGSMQTEPARPSNFLSASSPLPASAKGQQPADVTGTALPRVGPVRPTGQDWNHTPQKTDHPSALLRDPPEPGSPRISSLRPQGLSNPSTLSAQPQLSRSHSSGSVLPLGELEGRRSTRDRRSPAEPEGGPASEGAARPLPRFNSVPLTDTGHERQSEGSFSPQLQESVFHLLVPSVILVLLAVGGLLFYRWRRRSHQEPQRADSPLEQPEGSPLTQDDRQVELPV
neutralization of biological activity by 5H410 M-CSF Mab (NFS-60 cells [1]): neutralizes

fold increase in IC50 / decrease in binding affinity compared to M-CSFα NΔ3CΔ158 ([3]; relative to IC50 of about 17 pM for 158): 5 fold
B2: Q20A, V78K: double mutant of M-CSF altering solvent accessible residues in the central portion of helices A and C (protein, UniProt P09603 33-554, looked up, variant Q20A V78K)
Macrophage colony-stimulating …: B1 Macrophage colony-stimulating … with Q20A, V78K
specific activity (NFS-60 cells [2]; purified refolded dimers, compared to a standard of known M-CSF concentration): 1.4×10^7 U/mg
fold reduction in biological (specific) activity compared to parental M-CSF (NFS-60 cells [2]; relative to parental reference (homodimer or heterodimer)): 8-10 fold
M-CSF receptor-binding ability (in words) [3]: decreased
